Target: LFA-1 on immune cells (THP-1 cells, activated T cells) (human) (UniProt P20701)

adhesion of THP-1 cells on TNF-α stimulated TEC monolayers (% inhibition of adhesion): 55
Substance: human recombinant EDIL3 (from UniProt O43854) (ligand)
